# Data published in patent US20260021193A1 (IMMUNOME, published 2026).
# B1: UC-961 (ATX-P-453) (antibody, V domains shown)
# VH: QVQLQESGPGLVKPSQTLSLTCTVSGYAFTAYNIHWVRQAPGQGLEWMGSFDPYDGGSSYNQKFKDRLTISKDTSKNQVVLTMTNMDPVDTATYYCARGWYYFDYWGHGTLVTVSS
# VL: DIVMTQTPLSLPVTPGEPASISCRASKSISKYLAWYQQKPGQAPRLLIYSGSTLQSGIPPRFSGSGYGTDFTLTINNIESEDAAYYFCQQHDESPYTFGEGTKVEIK
# B2: 4A5 (antibody, V domains shown)
# VH: EVKLVESGGGLVKPGGSLKLSCAASGFTFSSYAMSWVRQIPEKRLEWVASISRGGTTYYPDSVKGRFTISRDNVRNILYLQMSSLRSEDTAMYYCGRYDYDGYYAMDYWGQGTSVTVSS
# VL: DIKMTQSPSSMYASLGERVTITCKASPDINSYLSWFQQKPGKSPKTLIYRANRLVDGVPSRFSGGGSGQDYSLTINSLEYEDMGIYYCLQYDEFPYTFGGGTKLEMK
# B3: ATX-P-885 (antibody, V domains shown)
# VH: QVQLQQWGAGLLKPSETLSLTCAVYGGSFSGYYWSWIRQPPGKGLEWIGEINHSGSTNYNPSLKSRVTISVDTSKNQFSLKLSSVTAADTAVYYCAREGVYEDYWGQGTLVTVSS
# VL: EIVLTQSPATLSLSPGERATLSCRASQSVSNYLAWYQQKPGQAPRLLIYDAYNRATGIPARFSGSGSGTDFTLTISSLEPEDFAVYYCQQRSNWPLTFGQGTRLEIKR
# B4: ATX-P-875 (antibody, V domains shown)
# VH: not shown
# VL: DIQMTQSPSSLSASVGDRVTITCRASQSISSYLNWYQQKPGKAPKLLIYAASSLQSGVPSRFSGSGSGTDFTLTISSLQPEDFATYYCQQYDNLPITFGQGTRLEIKR
# Assays:
# Hu/Cy/Rh ROR1 - His [1] = biological target: T1, Hu/Cy/Rh ROR1 - His (Human/Cyno/Rhesus, UniProt Q01973 30-403, limits assumed); assay: SPR, purified Hu/Cy/Rh ROR1-His
# T1 construct: Purified His-tagged ROR1 protein used in SPR; also called Human/Cyno/Rhesus ROR-1; not shown: His tag
# [2] = biological target: T2, human ROR-1 endogenously expressed on JeKo-1 and MDA-MB-468 cells (human, UniProt Q01973 30-937); assay: flow cytometry: titration of the antibody on ROR-1 positive JeKo-1 cells, secondary antibody staining, Net MFI
# T2 construct: whole, on cells; also called ROR-1 receptor
# Description: Cells were washed, stained with secondary antibody and cell binding saturation was detected by flow cytometry and reported as mean fluorescent intensity (MFI).
# A cell binding saturation assay was developed to evaluate how well the anti-ROR-1 antibodies developed in Example 22 bound to endogenously expressed extracellular ROR-1 protein on cell lines. […] Cells were then washed and subjected to secondary antibody staining and detection by flow cytometry. Mean fluorescence (MFI) was determined by analysis on cytometer software. […] (See FIGS. 27A-27B).
# [3] = biological target: T2, human ROR-1 endogenously expressed on …; assay: as above; remark: listed apart in the source
# [4] = biological target: T2, human ROR-1 endogenously expressed on …; assay: cell-based or functional assay
# Hu/Cy/Rh ROR1 - His [5] = biological target: T1, Hu/Cy/Rh ROR1 - His; assay: SPR (Carterra), cell 'Kinetics (KD)' in the head and in the left column of the binning table, antigen Hu/Cy/Rh ROR1-His; no unit stands on the sheet, M is taken from Table 3, where the same KD values of the other four antibodies stand under KD (M)
# [6] = biological target: T2, human ROR-1 endogenously expressed on …; assay: flow cytometry (cellular binning): titration of the antibody on MDA-MB-468 cells, fluorescently labeled secondary antibody, % Top MFI
# Description: (§1) Next, the anti-ROR-1 antibodies were fluorescently labeled with a secondary antibody.
# (§2) In Step 2, a fluorescently labeled secondary antibody recognizing the novel antibodies was incubated with the samples.
# [7] = biological target: T2, human ROR-1 endogenously expressed on …; assay: cell-based or functional assay; remark: listed apart in the source
# Mouse ROR1 - His = biological target: T3, Mouse ROR1 - His (Mouse, UniProt Q9Z139 30-403, limits assumed); assay: SPR, purified Mouse ROR1-His
# T3 construct: Purified His-tagged mouse ROR1 protein used in SPR; not shown: His tag
# T3 sequence (Q9Z139 30-403 limits assumed): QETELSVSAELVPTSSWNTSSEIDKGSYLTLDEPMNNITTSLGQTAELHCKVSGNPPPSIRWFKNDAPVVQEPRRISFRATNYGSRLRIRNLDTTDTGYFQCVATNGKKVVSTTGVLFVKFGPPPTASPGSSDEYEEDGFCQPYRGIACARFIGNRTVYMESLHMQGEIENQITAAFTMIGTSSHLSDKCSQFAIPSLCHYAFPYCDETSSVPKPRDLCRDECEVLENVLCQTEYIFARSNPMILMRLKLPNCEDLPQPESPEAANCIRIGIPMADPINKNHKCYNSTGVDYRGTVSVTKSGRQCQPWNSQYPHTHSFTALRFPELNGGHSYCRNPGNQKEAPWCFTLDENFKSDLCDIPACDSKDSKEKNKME
# [8] = biological target: T2, human ROR-1 endogenously expressed on …; assay: flow cytometry (cellular binning): titration of the antibody on MDA-MB-468 cells, fluorescently labeled secondary antibody, % Top MFI; remark: listed apart in the source
# Description: as §1, §2
# [9] = biological target: T2, human ROR-1 endogenously expressed on …; assay: flow cytometry competition (cellular binning) on MDA-MB-468 cells: cells coated with titrated ATX-P-885, then a saturating dose of the labeled competitor Dy650-UC961, whose signal is plotted in % Top MFI
# Description: as §1, §2
# [10] = biological target: T2, human ROR-1 endogenously expressed on …; assay: flow cytometry (cellular binning): titration of the antibody on MDA-MB-468 cells, fluorescently labeled secondary antibody, % Top MFI; remark: listed apart in the source
# Description: as §1, §2
# [11] = biological target: T2, human ROR-1 endogenously expressed on …; assay: flow cytometry competition (cellular binning) on MDA-MB-468 cells: cells coated with titrated ATX-P-875, then a saturating dose of the labeled competitor 4A5-PE, whose signal is plotted in % Top MFI
# Description: as §1, §2
Binder,Kd (Hu/Cy/Rh ROR1 - His [1]) [nM],koff (Hu/Cy/Rh ROR1 - His [1]) [s⁻¹],kon (Hu/Cy/Rh ROR1 - His [1]) [M⁻¹ s⁻¹],EC50 (read off the curve) [2] [nM],EC50 (read off the curve) [3] [nM],JeKo-1 (%) cellular internalization [4] [%],MDA-MB-468(%) cellular internalization [4] [%],Kd (Hu/Cy/Rh ROR1 - His [5]) [nM],EC50 (read off the curve) [6] [nM],"ROR-1 receptor internalization on JeKo-1 and MDA-MB-468 cells (reduction of surface antibody over 4 hours, flow cytometry) [7] [%]",Kd (Mouse ROR1 - His) [nM],koff (Mouse ROR1 - His) [s⁻¹],kon (Mouse ROR1 - His) [M⁻¹ s⁻¹],EC50 (read off the curve) [8] [nM],IC50 (read off the curve) [9] [nM],EC50 (read off the curve) [10] [nM],IC50 (read off the curve) [11] [nM]
B1,4.69,0.00591,1.26e+06,~0.1,~0.02,75,80,–,–,–,–,–,–,–,–,–,–
B2,–,–,–,–,–,–,–,2.81,–,–,–,–,–,–,–,–,–
B3,10.9,0.00295,270000,~0.3,–,75,89,–,~3,≥ 75,45.3,0.00132,29200,~2,~3,–,–
B4,–,–,–,–,–,75,89,–,~0.9,≥ 75,–,–,–,–,–,~0.5,~0.7
